# From paper PMC6007307
# Values joined by “and” are separate entries in the source; they are usually repeats but may differ in a detail not shown here. Equal entries are not always repeated.
# How the values were obtained:
# [1] = biological target: IFIT2 (recombinant) (human) (UniProt P09913); experiment: SEC-MALS; equal amounts of IFIT2 and IFIT3 mixed and incubated at 4°C for 1 h, SEC buffer
# [2] = biological target: IFIT2 (recombinant) (human) (UniProt P09913); experiment: SEC-MALS; each protein alone at varying concentrations; Superdex 200 Increase 10/300, room temperature, 20 mM Tris pH 7.5, 150 mM KCl, 1 mM DTT
# [3] = system: IFIT1 (human); experiment: primer extension inhibition (toeprinting); settings: 5' cap0 (m7GpppN, no 2'-O-methylation; ScriptCap); Toeprinting at equilibrium, [IFIT1] >= 10x [mRNA]; binding buffer, salt, pH and temperature not in the material (complexes assembled in 20 mM Tris pH 7.5 …)
# [4] = system: IFIT1;IFIT3 (human;human); experiment: primer extension inhibition (toeprinting); settings: 5' cap0 (m7GpppN, no 2'-O-methylation; ScriptCap); Toeprinting at equilibrium, [IFIT1] >= 10x [mRNA]; binding buffer, salt, pH and temperature not in the material (complexes assembled in 20 mM Tris pH 7.5 …)
# [5] = system: IFIT1;IFIT2;IFIT3 (human;human;human); experiment: primer extension inhibition (toeprinting); settings: 5' cap0 (m7GpppN, no 2'-O-methylation; ScriptCap); Toeprinting at equilibrium, [IFIT1] >= 10x [mRNA]; binding buffer, salt, pH and temperature not in the material (complexes assembled in 20 mM Tris pH 7.5 …)
# Chain of IFIT2 (recombinant) (P09913 whole entry): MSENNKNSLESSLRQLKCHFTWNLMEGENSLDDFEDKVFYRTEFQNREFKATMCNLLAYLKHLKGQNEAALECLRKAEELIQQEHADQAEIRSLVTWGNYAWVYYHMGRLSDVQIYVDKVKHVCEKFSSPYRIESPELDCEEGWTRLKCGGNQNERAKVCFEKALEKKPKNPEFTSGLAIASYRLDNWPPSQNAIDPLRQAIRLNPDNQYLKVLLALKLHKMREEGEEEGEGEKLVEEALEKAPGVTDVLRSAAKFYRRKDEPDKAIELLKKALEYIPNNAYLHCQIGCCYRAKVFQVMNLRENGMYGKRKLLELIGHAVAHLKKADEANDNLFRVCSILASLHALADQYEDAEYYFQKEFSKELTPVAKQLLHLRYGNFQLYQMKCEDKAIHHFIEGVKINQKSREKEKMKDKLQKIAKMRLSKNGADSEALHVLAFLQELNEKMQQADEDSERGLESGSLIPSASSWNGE
stoichiometry N [1],stoichiometry N [2],Substance,K half [3] [nM],K half [4] [nM],K half [5] [nM]
2,2 and 4,IFIT2 (recombinant) (from UniProt P09913 1-472) (natural protein),–,–,–
–,–,cap0-β-globin Fluc mRNA,40,19,19
